US20180044434A1 (PUBLIC UNIVERSITY CORPORATION YOKOHAMA CITY UNIVERSITY, published 2018)
Substitutions are numbered along the chain they refer to.

T1: Ala mutant of TA0096, SEQ ID NO: 42
T1 peptide: EENMDDQWMQDEMEIAY

T2: Ala mutant of TA0096, SEQ ID NO: 33
T2 peptide: EENMDDAWMQDEMEIGY

T3: Ala mutant having 3-amino acid substitution, SEQ ID NO: 45
T3 peptide: EENAAAQWMQDEMEIGY

T4: Ala mutant of TA0096, SEQ ID NO: 30
T4 peptide: EENADDQWMQDEMEIGY

T5: Ala mutant of TA0096, SEQ ID NO: 35
T5 peptide: EENMDDQWAQDEMEIGY

T6: Ala mutant of TA0096, SEQ ID NO: 28
T6 peptide: EANMDDQWMQDEMEIGY

T7: Ala mutant of TA0096, SEQ ID NO: 39
T7 peptide: EENMDDQWMQDEAEIGY

T8: Ala mutant having 3-amino acid substitution, SEQ ID NO: 49
T8 peptide: EENMDDQWMQDEMEIAA

T9: Ala mutant of TA0096, SEQ ID NO: 36
T9 peptide: EENMDDQWMADEMEIGY

T10: Ala mutant having 3-amino acid substitution, SEQ ID NO: 47
T10 peptide: EENMDDQWMAAAMEIGY

T11: Ala mutant of TA0096, SEQ ID NO: 31
T11 peptide: EENMADQWMQDEMEIGY

T12: Ala mutant having 3-amino acid substitution, SEQ ID NO: 48
T12 peptide: EENMDDQWMQDEAAAGY

T13: Ala mutant of TA0096, SEQ ID NO: 29
T13 peptide: EEAMDDQWMQDEMEIGY

T14: TA0096 (peptide antigen corresponding to positions 340 to 356 of PAD4)
T14 peptide: EENMDDQWMQDEMEIGY

T15: Ala mutant of TA0096, SEQ ID NO: 27
T15 peptide: AENMDDQWMQDEMEIGY

T16: Ala mutant of TA0096, SEQ ID NO: 41
T16 peptide: EENMDDQWMQDEMEAGY

T17: Ala mutant of TA0096, SEQ ID NO: 34
T17 peptide: EENMDDQAMQDEMEIGY

B1: A11 (antibody, V domains shown)
VH: AVTLDESGGGLQTPGGALSLVCKASGFDFSSYGMGWMRQAPGKGLEYVAAIRNDGSWTGYGAAVKGHATISRDNGQSTVRLQLNNLRAEDTGTYYCAKTTGSRGGSIDAWGHGTEVIVS
VL: ASTQPSSVSANLGGTVEITCSGGGRYYYGWYQQKSPGSAPVTVIYANDKRPSDIPSRFSGSKSGSTGTLTITGVQAEDEAVYFCGSAETSSYVFGAGTTLTVL
notes: Chicken variable regions in a mouse chimeric antibody (IgG1); also called anti-PAD4 antibody A11
B2: G8 (antibody, V domains shown)
VH: B1 VH with D28T, S31T, G33A, H67R, S71L, N84S, T99Y, R103S, D108G
VL: ASTQPSSVSANLGGTVEITCSGGNRNYYYGWYQQKSPGSAPVTLIYANDKRPSNIPSRFSGSKSGSTGTLTITGVQAEDEAVYFCGTADTGKYVFGAGTTLTVL
notes: Chicken variable regions in a mouse chimeric antibody (IgG1); also called anti-PAD4 antibody G8
B3: G6 (antibody, V domains shown)
VH: B1 VH with D28T, G35E, M37V, H67R, N74D, V79L, G92A, R103S
VL: B1 VL with G14E, E17K, R25N, V43L, D53N, S86T, E88D, S90G, S91K
notes: Chicken variable regions in a mouse chimeric antibody (IgG1); also called anti-PAD4 antibody G6
B4: E9 (antibody, V domains shown)
VH: B1 VH with A17T, A24G, D28T, A62S, H67R, G92A, T100S, R103S, I107V
VL: B1 VL
notes: Chicken variable regions in a mouse chimeric antibody (IgG1); also called anti-PAD4 antibody E9
B5: G9 (antibody, V domains shown)
VH: B1 VH with D28T, S31T, G33A, H67R, S71L, N84S, T99Y, R103S, D108G
VL: B1 VL with S2V, S6A
notes: Chicken variable regions in a mouse chimeric antibody (IgG1); also called anti-PAD4 antibody G9

Experiments:
[1] = biological target: full-length recombinant human or mouse PAD4 (species used for Table 7 and FIG. 7 not stated); test: cell-based or functional assay
[2] = biological target: T1, Ala mutant of TA0096, SEQ ID NO: 42; test: ELISA, coated peptide
[3] = biological target: T2, Ala mutant of TA0096, SEQ ID NO: 33; test: ELISA, coated peptide
[4] = biological target: T3, Ala mutant having 3-amino acid …; test: ELISA, coated peptide
[5] = biological target: T4, Ala mutant of TA0096, SEQ ID NO: 30; test: ELISA, coated peptide
[6] = biological target: T5, Ala mutant of TA0096, SEQ ID NO: 35; test: ELISA, coated peptide
[7] = biological target: T6, Ala mutant of TA0096, SEQ ID NO: 28; test: ELISA, coated peptide
[8] = biological target: T7, Ala mutant of TA0096, SEQ ID NO: 39; test: ELISA, coated peptide
[9] = biological target: T8, Ala mutant having 3-amino acid …; test: ELISA, coated peptide
[10] = biological target: T9, Ala mutant of TA0096, SEQ ID NO: 36; test: ELISA, coated peptide
[11] = biological target: T10, Ala mutant having 3-amino acid …; test: ELISA, coated peptide
[12] = biological target: T11, Ala mutant of TA0096, SEQ ID NO: 31; test: ELISA, coated peptide
[13] = biological target: T12, Ala mutant having 3-amino acid …; test: ELISA, coated peptide
[14] = biological target: T13, Ala mutant of TA0096, SEQ ID NO: 29; test: ELISA, coated peptide
[15] = biological target: T14, TA0096 (peptide antigen corresponding …); test: ELISA, coated peptide
[16] = biological target: T15, Ala mutant of TA0096, SEQ ID NO: 27; test: ELISA, coated peptide
[17] = biological target: T16, Ala mutant of TA0096, SEQ ID NO: 41; test: ELISA, coated peptide
[18] = biological target: T18, full-length recombinant human PAD4 (human, UniProt Q9UM07 1-663); test: ELISA, coated human PAD4; antibody 0.0002441 ug/mL
T18 construct: Full-length recombinant; also called peptidylarginine deiminase 4

[19] = biological target: T3, Ala mutant having 3-amino acid …; test: ELISA, 3-amino acid Ala mutants
Protocol: (§1) The epitope of each of A11 etc. was identified by alanine scan. Specifically, the following procedures (i) to (iii) were carried out. (i) Each amino acid residue of the antigen sequence (SEQ ID NO: 1) was replaced by another amino acid one by one, and 17 different Ala mutants (SEQ ID Nos: 27 to 43) were synthesized. (ii) The reactivity of each of the Ala mutants toward a test antibody was evaluated (ELISA).
Note that, as additional experiments, 6 different Ala mutants having 3-amino acid substitution (SEQ ID NOs: 44 to 49) were likewise examined in the experiments.

[20] = biological target: T19, full-length recombinant mouse PAD4 (mouse, UniProt Q9Z183 1-666); test: ELISA, coated mouse PAD4; antibody 0.0039063 ug/mL
T19 construct: mature; Full-length recombinant

[21] = biological target: T17, Ala mutant of TA0096, SEQ ID NO: 34; test: ELISA, alanine scan (position 347)
Protocol: as §1
The “96 pAb” designated in the table refers to antiserum as obtained by immunizing a chicken with TA0096 (SEQ ID NO: 1). The 96 pAb, which is an anti-PAD4 polyclonal antibody, can substantially keep the affinity toward PAD4 even if any of single amino acids of PAD4 is replaced.

[22] = biological target: T18, full-length recombinant human PAD4; test: ELISA, coated human PAD4; antibody 0.0625 ug/mL
[23] = biological target: T18, full-length recombinant human PAD4; test: ELISA, coated human PAD4; antibody 0.0009766 ug/mL
[24] = biological target: T18, full-length recombinant human PAD4; test: ELISA, coated human PAD4; antibody 0.0039063 ug/mL
[25] = biological target: T18, full-length recombinant human PAD4; test: SPR (Biacore T200), antibody captured, human PAD4 analyte
Protocol: Biacore (GE Healthcare, Biacore T200) was carried out to evaluate the affinity of A11 etc., toward human PAD4. A Mouse Antibody Capture kit (GE Healthcare, BR-1008-38) was used for the affinity assay. Specifically, in accordance with the standard protocol provided by the manufacture, NHS/EDC was used and an amine coupling method, in which a free carboxyl group is fixed on a surface of a CM5 chip, was used to immobilize a rabbit anti-mouse polyclonal antibody on the surface of a CM5 chip. Next, A11 etc., were each captured by the rabbit anti-mouse polyclonal antibody. L207 was likewise captured. Then, human PAD4 at each concentration was subjected to Biacore T200 measurement to create a kinetic sensorgram.

[26] = biological target: T19, full-length recombinant mouse PAD4; test: ELISA, coated mouse PAD4; antibody 6.104E-05 ug/mL

T19 sequence (Q9Z183 whole entry): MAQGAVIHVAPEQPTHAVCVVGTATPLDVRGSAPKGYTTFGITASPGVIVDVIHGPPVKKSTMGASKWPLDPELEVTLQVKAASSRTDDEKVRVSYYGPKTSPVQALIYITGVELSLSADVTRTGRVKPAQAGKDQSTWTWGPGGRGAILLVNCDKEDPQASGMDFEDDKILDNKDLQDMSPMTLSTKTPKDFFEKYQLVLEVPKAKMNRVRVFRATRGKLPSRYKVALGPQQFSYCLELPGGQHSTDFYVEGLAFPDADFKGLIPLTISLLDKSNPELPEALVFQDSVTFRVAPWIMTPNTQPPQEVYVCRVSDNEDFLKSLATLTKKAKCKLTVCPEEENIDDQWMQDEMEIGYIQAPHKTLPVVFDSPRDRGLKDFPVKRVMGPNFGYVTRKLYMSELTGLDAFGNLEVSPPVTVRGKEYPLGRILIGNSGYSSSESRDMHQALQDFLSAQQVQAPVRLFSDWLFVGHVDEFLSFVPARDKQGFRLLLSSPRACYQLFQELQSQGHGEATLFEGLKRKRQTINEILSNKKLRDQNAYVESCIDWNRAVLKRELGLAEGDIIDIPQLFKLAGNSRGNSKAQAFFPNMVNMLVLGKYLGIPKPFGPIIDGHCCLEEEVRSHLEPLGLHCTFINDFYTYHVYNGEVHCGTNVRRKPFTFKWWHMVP
T18 sequence (Q9UM07 whole entry): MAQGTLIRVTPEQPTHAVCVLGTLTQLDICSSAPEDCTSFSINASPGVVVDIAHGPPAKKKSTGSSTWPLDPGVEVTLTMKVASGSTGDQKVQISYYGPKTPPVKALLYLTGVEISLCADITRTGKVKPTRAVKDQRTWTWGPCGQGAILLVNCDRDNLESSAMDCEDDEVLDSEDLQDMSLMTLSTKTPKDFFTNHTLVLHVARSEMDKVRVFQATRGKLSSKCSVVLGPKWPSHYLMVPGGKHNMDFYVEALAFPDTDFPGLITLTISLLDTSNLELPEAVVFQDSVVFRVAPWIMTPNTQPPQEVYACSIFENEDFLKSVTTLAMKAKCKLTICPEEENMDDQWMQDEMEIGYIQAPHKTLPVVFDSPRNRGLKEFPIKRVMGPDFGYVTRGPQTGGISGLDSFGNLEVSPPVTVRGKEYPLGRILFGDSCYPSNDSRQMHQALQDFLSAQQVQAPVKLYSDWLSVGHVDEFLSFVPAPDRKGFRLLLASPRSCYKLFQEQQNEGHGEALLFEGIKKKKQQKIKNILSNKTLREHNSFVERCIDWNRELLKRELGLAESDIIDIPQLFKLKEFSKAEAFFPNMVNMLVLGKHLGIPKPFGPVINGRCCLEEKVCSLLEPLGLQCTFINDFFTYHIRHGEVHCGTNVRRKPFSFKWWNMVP

| Binder | Relative citrullination activity [1] | OD 490/630 nm [2] | OD 490/630 nm [3] | OD 490/630 nm [4] | OD 490/630 nm [5] | OD 490/630 nm [6] | OD 490/630 nm [7] | OD 490/630 nm [8] | OD 490/630 nm [9] | OD 490/630 nm [10] | OD 490/630 nm [11] | OD 490/630 nm [12] | OD 490/630 nm [13] | OD 490/630 nm [14] | OD 490/630 nm [15] | OD 490/630 nm [16] | OD 490/630 nm [17] | OD 490/630 nm [18] | binding result [19] | OD 490/630 nm [20] | further results |
| --- | --- | --- | --- | --- | --- | --- | --- | --- | --- | --- | --- | --- | --- | --- | --- | --- | --- | --- | --- | --- | --- |
| B1 | 64 relative to PBS = 100 | 1.88 | 2.09 | 0.039 | 2.03 | 0.023 | 2 | 1.89 | 1.89 | 1.91 | 1.25 | 1.67 | 1.87 | 2.05 | 1.81 | 1.95 | 1.85 | 0.206 | no binding | 1.07 | binding result [21]: no binding; OD 490/630 nm [22]: 2.15; OD 490/630 nm [23]: 0.511; OD 490/630 nm [24]: 1.31; Kd [25]: 4.37 nM; koff [25]: 0.000566 s⁻¹; kon [25]: 129000 M⁻¹ s⁻¹; OD 490/630 nm [26]: 0.045 |
| B2 | 63 relative to PBS = 100 | 1.86 | 1.98 | 0.065 | 1.93 | 0.233 | 1.94 | 1.88 | 1.86 | 1.92 | 1.86 | 1.85 | 1.88 | 1.91 | 1.88 | 1.96 | 1.85 | 0.184 | no binding | 1.42 | binding result [21]: no binding; OD 490/630 nm [22]: 2.12; OD 490/630 nm [23]: 0.544; OD 490/630 nm [24]: 1.34; Kd [25]: 2.34 nM; koff [25]: 0.000243 s⁻¹; kon [25]: 104000 M⁻¹ s⁻¹; OD 490/630 nm [26]: 0.122 |
| B3 | 69 relative to PBS = 100 | 1.87 | 1.98 | 0.018 | 1.92 | 0.015 | 1.99 | 1.83 | 1.88 | 1.85 | 1.73 | 1.77 | 1.85 | 1.95 | 1.87 | 1.91 | 1.87 | 0.166 | no binding | 0.55 | binding result [21]: no binding; OD 490/630 nm [22]: 2.12; OD 490/630 nm [23]: 0.437; OD 490/630 nm [24]: 1.16; Kd [25]: 8.74 nM; koff [25]: 0.000389 s⁻¹; kon [25]: 44500 M⁻¹ s⁻¹; OD 490/630 nm [26]: 0.044 |
| B4 | 59 relative to PBS = 100 | 1.83 | 1.93 | 0.022 | 1.91 | 0.017 | 2 | 1.77 | 1.85 | 1.9 | 1.34 | 1.38 | 1.81 | 1.92 | 1.79 | 1.89 | 1.8 | 0.176 | no binding | 0.956 | binding result [21]: no binding; OD 490/630 nm [22]: 2.12; OD 490/630 nm [23]: 0.489; OD 490/630 nm [24]: 1.36; Kd [25]: 5.52 nM; koff [25]: 0.000837 s⁻¹; kon [25]: 152000 M⁻¹ s⁻¹; OD 490/630 nm [26]: 0.051 |
| B5 | 68 relative to PBS = 100 | 1.85 | 1.98 | 0.019 | 2.03 | 0.253 | 1.96 | 1.87 | 1.92 | 1.87 | 1.85 | 1.48 | 1.89 | 1.94 | 1.85 | 1.93 | 1.89 | 0.187 | no binding | 1.39 | binding result [21]: no binding; OD 490/630 nm [22]: 2.11; OD 490/630 nm [23]: 0.534; OD 490/630 nm [24]: 1.36; Kd [25]: 3.16 nM; koff [25]: 0.000284 s⁻¹; kon [25]: 90000 M⁻¹ s⁻¹; OD 490/630 nm [26]: 0.079 |
